Experimental findings from paper PMC10177266, “Interaction between Human Papillomavirus-Encoded E6 Protein and AurB Induces Cell Immortalization and Proliferation—A Potential Target of Intervention” (Cancers, 2023) are described below.

Holding throughout (assay): pull-down; purified GST fusion proteins on glutathione agarose incubated with in vitro-translated Flag-AurB for 1 h at room temperature; washed thrice with PBS with 0.1% Tween 20; bound AurB detected by western blot, quantitated with ImageJ and normalized to the GST fusion protein
Background: In western blotting, separated proteins are transferred to a membrane and probed.

Assay [1] addresses GST-HPV16 E6 with its C-terminus PDZ binding motif depleted (E6ΔPBM) (human papillomavirus type 16) (UniProt P03126).
A further assay concerns the target T1, GST-HPV16 E6 T140A (human papillomavirus type 16, UniProt P03126 1-158, T140A).
T1 construct: E6 oncoprotein of human papillomavirus type 16 with T140A; source: E. coli, purified on glutathione-conjugated agarose resin
The conditions noted are these: one partner purified.

The next assay deals with T2, GST-HPV16 E6 S89A (human papillomavirus type 16, UniProt P03126 1-158, S89A).
T2 construct: E6 oncoprotein of human papillomavirus type 16 with S89A; source: E. coli, purified on glutathione-conjugated agarose resin
The conditions noted are these: one partner purified.

A further assay addresses T3, GST-HPV16 E6 S150A (human papillomavirus type 16, UniProt P03126 1-158, S150A).
T3 construct: E6 oncoprotein of human papillomavirus type 16 with S150A; source: E. coli, purified on glutathione-conjugated agarose resin
The conditions noted are these: one partner purified.

The target in the next assay is T4, GST-HPV16 E6 S145A (human papillomavirus type 16, UniProt P03126 1-158, S145A).
T4 construct: E6 oncoprotein of human papillomavirus type 16 with S145A; source: E. coli, purified on glutathione-conjugated agarose resin
To be noted: one partner purified.

The molecule “Flag-tagged Aurora kinase B (from UniProt Q96GD4 1-344) (enzyme)” returned a fold of bound AurB against E6 wild type in assay [1] of 3 fold.

B1: Flag-tagged Aurora kinase B (enzyme)
chain: MAQKENSYPWPYGRQTAPSGLSTLPQRVLRKEPVTPSALVLMSRSNVQPTAAPGQKVMENSSGTPDILTRHFTIDDFEIGRPLGKGKFGNVYLAREKKSHFIVALKVLFKSQIEKEGVEHQLRREIEIQAHLHHPNILRLYNYFYDRRRIYLILEYAPRGELYKELQKSCTFDEQRTATIMEELADALMYCHGKKVIHRDIKPENLLLGLKGELKIADFGWSVHAPSLRRKTMCGTLDYLPPEMIEGRMHNEKVDLWCIGVLCYELLVGNPPFESASHNETYRRIVKVDLKFPASVPMGAQDLISKLLRHNPSERLPLAQVSAHPWVRANSRRVLPPSALQSVA
notes: Aurora kinase B, human, from pcDNA:Flag-Aurora kinase B; the functional rows use this molecule for that purified protein; also called FL-AurB; Flag-AurB; source: in vitro translated (TNT Coupled Reticulocyte Lysate System, Promega)
For B1, the “bound AurB, percent of E6 wild type” value worked out at 45% with GST-HPV16 E6 T140A, 44% in the assay with GST-HPV16 E6 S89A, 57% with GST-HPV16 E6 S150A and 27% with GST-HPV16 E6 S145A.
